The results in this text go back to paper PMC7975240.

pKd: −log10 of the molar value.

The assay concerns the target SARS-CoV-2 spike trimer (1–1208 aa) (SARS-CoV-2) (UniProt P0DTC2). Description: SPR. (In SPR one partner is held on a chip, and binding of the other changes the refractive index at the surface.)

Consider “Toll-like receptor 4 (TLR4) (from UniProt O00206 24-839)”, for which the pKd (usually the Kd on a negative log10 scale, so that one unit is a factor of ten) is 6.52.
